Results reported in a protein production outcome set (Wang et al. 2014).

Assay: label from the status in PepcDB records

MLKDNLKEWFGFDEFKEGQEEIIDSVLHGRHTLGILPTGSGKSLCYQLPTYILEKPTLIISPLISLMDDQVMQMKLKGETHVACVHSGMDEVEKRDNIKRLSKSRFIYLSPEYILQPHNFKYIAHINFGLIVLDEAHCLSEWGYDFRPHYALVGKIIHHFNSATVLALTATAPPQLETDLSHILSLKLNVVQKSMNRENISLQHYNFNDDEGKIEWLLPFLSNSGPTIIYVSSKKRCLELAQMIYDSGYLTGIYHGDLSYQERQTVQQQFFNNDIPVIVATSAFGMGINKKDIRTVIHFHLSSSPSNYLQEIGRAGRDGKQSQAISLFQPDDSFILETLLFTDIITDDDITMFETGNHLPDEKEKILSTLNIQFTFSQLKDIFHQSYQRKRLGYMRMMGYTNLDQCRRKYLLEFFGEHPQSPKQCCDQDSRLEPIQILNRKKVKRKLSFNEKLYNLFET
protein production: failed

MHPSLKYMRKDRLPHIFCSGCGNGIVLNCFTNALDKLALKNEDYIAISGIGCSSRVPGYLFCDSLHTTHGRPIAFALGTKVIQNDKKVVVFTGDGDLSAIGGNHFIHGCRRNIDITVICINNNIYGMTGGQCSPTTPHEKKATTAPYGNPENPLDLCELAKAAGATYVARWTTANPIQLANSIKKGMDKKGFSFIEVVSQCPTYYGRFNVSRKPSEMMKNLKESAITVRKAESMEKEELLNKIVVGEFLNIEKPEYVEQLKKLQE
protein production: failed

MRIAAALLAIALTGLSGAVWAETSAAIVARKPDLFHPETGLRIDRQRAPVPEDIPPPARKISALWARKLIARGALALDVYGAAQSRYDELDGTWLVPEPRQSLPGAVWLPEVGRGVLDAALQVYLERELERLTGGSKARAIVVFCVADCWMSWNAAQRIAGMGYLQVYWFPLGTDGWRELGWPLEPVEPVPVPVD
protein production: failed

AIATDCEWFDMTWGSSASSGYCSQSDSDEHELELFYTARTSLRKSRKCRDKDEQSEVDWRKQDLSVTEIQQKVKEYNAQVNSNLFMVLNRDGSYTGFIKVQFKLARPVSLPPPRSVSSSSISSSCLGWDGGCQERTSFYLPRDTVKHLHISSSTRAREVIQALLNKFTVVDNPAKYSLYERSQRDNQVYLRKLADDECPLFLRLCAGPNEKVLSLVLKENETGEVNWDAFSFPELQNFLRILQREEEDHVRQIIRRYTLARDKMKEAMKNFSTPG
protein production: failed

MRYWKNSRIKMFEQEDEWISKTQMKKQMNDLQDLGMALTKLSNDTLKKIGLDADLYEAVTAYKKITSNGALKRQAQFIGRLMRDTDPAPIEAFLAKLRGDDAAHNAFLQRVEQARVRLLADDGALTQFMSDFPHADAGKLRTLIRNTKKEQEQNKPPKNFRALFQELKTVMENGDAEI
protein production: failed

MCEGRRAAFQAVDNCSSGNALTSKCGEKEAGVAGDAATSPKGLTWDPAQCFYSPACNAENITSKNRSPALLSRPHAQPGESERLITVLSNRDRKASPGAAGDSGLGGASPSGRGRDGTRGWGENWLPPPAAPQATSACSGAGSGAVGAARPCSSRELAVVGGGGDASGGCVGCRAGDRTAAPSSRCPEPTWSNCSEATAPAHTGEEAAVAAVAAAPAMLCYVTRPDAVLMEVEVEAKANGEDCLNQVCRRLGIIEVDYFGLQFTGSKGESLWLNLRNRISQQMDGLAPYRLKLRVKFFVEPHLILQEQTRHIFFLHIKESLLAGHLQCSPEQAVELSALLAQTKFGDYNQNTAQYSYEDLCEKELSSSTLNSIVGKHKELEGISQASAEYQVLQIVSAMENYGIEWHAVRDSEGQKLLIGVGPEGISICKEDFSPINRIAYPVVQMATQSGKNVYLTVTKESGNSIVLLFKMISTRAASGLYRAITETHAFYRCDTVTSAVMMQYSRDLKGHLASLFLNENINLGKKYVFDIKRTSKEVYDHARRALYNAGVVDLVSRNDQSPPSSPLKSSDSSMSCSSCEGLSCQQTRVLQEKLRKLKEAMLCMVCCEEEINSTFCPCGHTVCCESCAAQLQSCPVCRSRVEHVQHVYLPTHTSLLNLTVI
protein production: failed
